Assay results: article PMC10054925 (bioRxiv, 2023)

Molecular target: the molecule itself
Test: SEC

B1: Vibrio cholerae HlyU (VcHlyU), transcriptional activator of hlyA (natural protein)
chain: MPYLKGAPMNLQEMEKNSAKAVVLLKAMANERRLQILCMLLDNELSVGELSSRLELSQSALSQHLAWLRRDGLVNTRKEAQTVFYTLSSTEVKAMIELLHRLYCQANQ
stoichiometry N: 2
